Test results from PMC6587469.
“And” between values parts separate entries of the source, which are not always exact repeats. Equal values may be shown once.

Legend:
[1] = target: MabSelect SuRe protein A ligand: tetrameric chain of Z-domains (recombinant form of the B domain of (Staphylococcus aureus)); assay: batch adsorption isotherm
[2] = target: MabSelect SuRe protein A ligand: tetrameric chain of Z-domains (recombinant form of the B domain of (Staphylococcus aureus)); assay: SAXS

Q: Which stoichiometry N (antibody molecules per ligand) [1] does the source give for Trastuzumab (antibody) here?
A: The stoichiometry N (antibody molecules per ligand) was 2.

Q: And the stoichiometry N (antibody : protein A chain) [2]?
A: Its stoichiometry N (antibody : protein A chain) is 1 and 2.
